Assay results from US8748182B2, “Mutant proteins and methods for producing them” (Heptares Therapeutics Limited, priority 2007, dated 2014).

Assay: Thermostability of neurotensin receptor (NTR) mutants (3H-neurotensin binding)
Format: physicochemical
Settings: Ligand(+) format
Method: FIG. 12 Flow chart showing the two different assay formats of ligand (+) and ligand (−) used to determine receptor thermostablity.
3. Mutants tested for thermostability by heating in the absence of the agonist were re-tested using a slightly different assay where the mutants were heated in the presence of ^3H-neurotensin (Ligand(+) format in FIG. 12). […] All of these also have increased thermostability. • 5. Preferred combinations are • a. Nag7m F358A+A86L+1260A+F342A Tm 51° C. (neurotensin bound) • b. Nag7n F358A+H103A+1260A+F342A Tm 51° C. (neurotensin bound) • Wildtype NTR has a Tm of 35° C. with neurotensin bound.

Molecule | thermostability, heated in the presence of 3H-neurotensin
T294A: NTR point mutant (protein, UniProt P20789 1-424, looked up, variant T294A) Neurotensin receptor type 1: MHLNSSVPQGTPGEPDAQPFSGPQSEMEATFLALSLSNGSGNTSESDTAGPNSDLDVNTDIYSKVLVTAIYLALFVVGTVGNSVTAFTLARKKSLQSLQSTVHYHLGSLALSDLLILLLAMPVELYNFIWVHHPWAFGDAGCRGYYFLRDACTYATALNVASLSVERYLAICHPFKAKTLMSRSRTKKFISAIWLASALLAIPMLFTMGLQNRSGDGTHPGGLVCTPIVDTATVKVVIQVNTFMSFLFPMLVISILNTVIANKLTVMVHQAAEQGRVCTVGTHNGLEHSTFNMAIEPGRVQALRHGVLVLRAVVIAFVVCWLPYHVRRLMFCYISDEQWTTFLFDFYHYFYMLTNALFYVSSAINPILYNLVSANFRQVFLSTLACLCPGWRHRRKKRPTFSRKPNSMSSNHAFSTSATRETLY | improved thermostability
F342A: NTR point mutant (protein, UniProt P20789 1-424, looked up, variant F342A) Neurotensin receptor type 1: MHLNSSVPQGTPGEPDAQPFSGPQSEMEATFLALSLSNGSGNTSESDTAGPNSDLDVNTDIYSKVLVTAIYLALFVVGTVGNSVTAFTLARKKSLQSLQSTVHYHLGSLALSDLLILLLAMPVELYNFIWVHHPWAFGDAGCRGYYFLRDACTYATALNVASLSVERYLAICHPFKAKTLMSRSRTKKFISAIWLASALLAIPMLFTMGLQNRSGDGTHPGGLVCTPIVDTATVKVVIQVNTFMSFLFPMLVISILNTVIANKLTVMVHQAAEQGRVCTVGTHNGLEHSTFNMTIEPGRVQALRHGVLVLRAVVIAFVVCWLPYHVRRLMFCYISDEQWTTALFDFYHYFYMLTNALFYVSSAINPILYNLVSANFRQVFLSTLACLCPGWRHRRKKRPTFSRKPNSMSSNHAFSTSATRETLY | improved thermostability
A69L: NTR point mutant (protein, UniProt P20789 1-424, looked up, variant A69L) Neurotensin receptor type 1: MHLNSSVPQGTPGEPDAQPFSGPQSEMEATFLALSLSNGSGNTSESDTAGPNSDLDVNTDIYSKVLVTLIYLALFVVGTVGNSVTAFTLARKKSLQSLQSTVHYHLGSLALSDLLILLLAMPVELYNFIWVHHPWAFGDAGCRGYYFLRDACTYATALNVASLSVERYLAICHPFKAKTLMSRSRTKKFISAIWLASALLAIPMLFTMGLQNRSGDGTHPGGLVCTPIVDTATVKVVIQVNTFMSFLFPMLVISILNTVIANKLTVMVHQAAEQGRVCTVGTHNGLEHSTFNMTIEPGRVQALRHGVLVLRAVVIAFVVCWLPYHVRRLMFCYISDEQWTTFLFDFYHYFYMLTNALFYVSSAINPILYNLVSANFRQVFLSTLACLCPGWRHRRKKRPTFSRKPNSMSSNHAFSTSATRETLY | improved thermostability
N370A: NTR point mutant (protein, UniProt P20789 1-424, looked up, variant N370A) Neurotensin receptor type 1: MHLNSSVPQGTPGEPDAQPFSGPQSEMEATFLALSLSNGSGNTSESDTAGPNSDLDVNTDIYSKVLVTAIYLALFVVGTVGNSVTAFTLARKKSLQSLQSTVHYHLGSLALSDLLILLLAMPVELYNFIWVHHPWAFGDAGCRGYYFLRDACTYATALNVASLSVERYLAICHPFKAKTLMSRSRTKKFISAIWLASALLAIPMLFTMGLQNRSGDGTHPGGLVCTPIVDTATVKVVIQVNTFMSFLFPMLVISILNTVIANKLTVMVHQAAEQGRVCTVGTHNGLEHSTFNMTIEPGRVQALRHGVLVLRAVVIAFVVCWLPYHVRRLMFCYISDEQWTTFLFDFYHYFYMLTNALFYVSSAINPILYALVSANFRQVFLSTLACLCPGWRHRRKKRPTFSRKPNSMSSNHAFSTSATRETLY | improved thermostability
V313A: NTR point mutant (protein, UniProt P20789 1-424, looked up, variant V313A) Neurotensin receptor type 1: MHLNSSVPQGTPGEPDAQPFSGPQSEMEATFLALSLSNGSGNTSESDTAGPNSDLDVNTDIYSKVLVTAIYLALFVVGTVGNSVTAFTLARKKSLQSLQSTVHYHLGSLALSDLLILLLAMPVELYNFIWVHHPWAFGDAGCRGYYFLRDACTYATALNVASLSVERYLAICHPFKAKTLMSRSRTKKFISAIWLASALLAIPMLFTMGLQNRSGDGTHPGGLVCTPIVDTATVKVVIQVNTFMSFLFPMLVISILNTVIANKLTVMVHQAAEQGRVCTVGTHNGLEHSTFNMTIEPGRVQALRHGVLVLRAAVIAFVVCWLPYHVRRLMFCYISDEQWTTFLFDFYHYFYMLTNALFYVSSAINPILYNLVSANFRQVFLSTLACLCPGWRHRRKKRPTFSRKPNSMSSNHAFSTSATRETLY | improved thermostability
V360A: NTR point mutant (protein, UniProt P20789 1-424, looked up, variant V360A) Neurotensin receptor type 1: MHLNSSVPQGTPGEPDAQPFSGPQSEMEATFLALSLSNGSGNTSESDTAGPNSDLDVNTDIYSKVLVTAIYLALFVVGTVGNSVTAFTLARKKSLQSLQSTVHYHLGSLALSDLLILLLAMPVELYNFIWVHHPWAFGDAGCRGYYFLRDACTYATALNVASLSVERYLAICHPFKAKTLMSRSRTKKFISAIWLASALLAIPMLFTMGLQNRSGDGTHPGGLVCTPIVDTATVKVVIQVNTFMSFLFPMLVISILNTVIANKLTVMVHQAAEQGRVCTVGTHNGLEHSTFNMTIEPGRVQALRHGVLVLRAVVIAFVVCWLPYHVRRLMFCYISDEQWTTFLFDFYHYFYMLTNALFYASSAINPILYNLVSANFRQVFLSTLACLCPGWRHRRKKRPTFSRKPNSMSSNHAFSTSATRETLY | improved thermostability
L310A: NTR point mutant (protein, UniProt P20789 1-424, looked up, variant L310A) Neurotensin receptor type 1: MHLNSSVPQGTPGEPDAQPFSGPQSEMEATFLALSLSNGSGNTSESDTAGPNSDLDVNTDIYSKVLVTAIYLALFVVGTVGNSVTAFTLARKKSLQSLQSTVHYHLGSLALSDLLILLLAMPVELYNFIWVHHPWAFGDAGCRGYYFLRDACTYATALNVASLSVERYLAICHPFKAKTLMSRSRTKKFISAIWLASALLAIPMLFTMGLQNRSGDGTHPGGLVCTPIVDTATVKVVIQVNTFMSFLFPMLVISILNTVIANKLTVMVHQAAEQGRVCTVGTHNGLEHSTFNMTIEPGRVQALRHGVLVARAVVIAFVVCWLPYHVRRLMFCYISDEQWTTFLFDFYHYFYMLTNALFYVSSAINPILYNLVSANFRQVFLSTLACLCPGWRHRRKKRPTFSRKPNSMSSNHAFSTSATRETLY | improved thermostability
L308A: NTR point mutant (protein, UniProt P20789 1-424, looked up, variant L308A) Neurotensin receptor type 1: MHLNSSVPQGTPGEPDAQPFSGPQSEMEATFLALSLSNGSGNTSESDTAGPNSDLDVNTDIYSKVLVTAIYLALFVVGTVGNSVTAFTLARKKSLQSLQSTVHYHLGSLALSDLLILLLAMPVELYNFIWVHHPWAFGDAGCRGYYFLRDACTYATALNVASLSVERYLAICHPFKAKTLMSRSRTKKFISAIWLASALLAIPMLFTMGLQNRSGDGTHPGGLVCTPIVDTATVKVVIQVNTFMSFLFPMLVISILNTVIANKLTVMVHQAAEQGRVCTVGTHNGLEHSTFNMTIEPGRVQALRHGVAVLRAVVIAFVVCWLPYHVRRLMFCYISDEQWTTFLFDFYHYFYMLTNALFYVSSAINPILYNLVSANFRQVFLSTLACLCPGWRHRRKKRPTFSRKPNSMSSNHAFSTSATRETLY | improved thermostability
G306A: NTR point mutant (protein, UniProt P20789 1-424, looked up, variant G306A) Neurotensin receptor type 1: MHLNSSVPQGTPGEPDAQPFSGPQSEMEATFLALSLSNGSGNTSESDTAGPNSDLDVNTDIYSKVLVTAIYLALFVVGTVGNSVTAFTLARKKSLQSLQSTVHYHLGSLALSDLLILLLAMPVELYNFIWVHHPWAFGDAGCRGYYFLRDACTYATALNVASLSVERYLAICHPFKAKTLMSRSRTKKFISAIWLASALLAIPMLFTMGLQNRSGDGTHPGGLVCTPIVDTATVKVVIQVNTFMSFLFPMLVISILNTVIANKLTVMVHQAAEQGRVCTVGTHNGLEHSTFNMTIEPGRVQALRHAVLVLRAVVIAFVVCWLPYHVRRLMFCYISDEQWTTFLFDFYHYFYMLTNALFYVSSAINPILYNLVSANFRQVFLSTLACLCPGWRHRRKKRPTFSRKPNSMSSNHAFSTSATRETLY | improved thermostability
V309A: NTR point mutant (protein, UniProt P20789 1-424, looked up, variant V309A) Neurotensin receptor type 1: MHLNSSVPQGTPGEPDAQPFSGPQSEMEATFLALSLSNGSGNTSESDTAGPNSDLDVNTDIYSKVLVTAIYLALFVVGTVGNSVTAFTLARKKSLQSLQSTVHYHLGSLALSDLLILLLAMPVELYNFIWVHHPWAFGDAGCRGYYFLRDACTYATALNVASLSVERYLAICHPFKAKTLMSRSRTKKFISAIWLASALLAIPMLFTMGLQNRSGDGTHPGGLVCTPIVDTATVKVVIQVNTFMSFLFPMLVISILNTVIANKLTVMVHQAAEQGRVCTVGTHNGLEHSTFNMTIEPGRVQALRHGVLALRAVVIAFVVCWLPYHVRRLMFCYISDEQWTTFLFDFYHYFYMLTNALFYVSSAINPILYNLVSANFRQVFLSTLACLCPGWRHRRKKRPTFSRKPNSMSSNHAFSTSATRETLY | improved thermostability
S373A: NTR point mutant (protein, UniProt P20789 1-424, looked up, variant S373A) Neurotensin receptor type 1: MHLNSSVPQGTPGEPDAQPFSGPQSEMEATFLALSLSNGSGNTSESDTAGPNSDLDVNTDIYSKVLVTAIYLALFVVGTVGNSVTAFTLARKKSLQSLQSTVHYHLGSLALSDLLILLLAMPVELYNFIWVHHPWAFGDAGCRGYYFLRDACTYATALNVASLSVERYLAICHPFKAKTLMSRSRTKKFISAIWLASALLAIPMLFTMGLQNRSGDGTHPGGLVCTPIVDTATVKVVIQVNTFMSFLFPMLVISILNTVIANKLTVMVHQAAEQGRVCTVGTHNGLEHSTFNMTIEPGRVQALRHGVLVLRAVVIAFVVCWLPYHVRRLMFCYISDEQWTTFLFDFYHYFYMLTNALFYVSSAINPILYNLVAANFRQVFLSTLACLCPGWRHRRKKRPTFSRKPNSMSSNHAFSTSATRETLY | improved thermostability
